{
  "source": "patent US20260266848A1",
  "about": "“COMPOSITIONS AND METHODS FOR DIAGNOSING AND TREATING DYSTONIA” (Duke University, priority 2023, published 2026)",
  "molecules": {"B1": {"name": "Cryab (protein, UniProt P23927 1-175, looked up)", "Alpha-crystallin B chain": "MDIAIHHPWIRRPFFPFHSPSRLFDQFFGEHLLESDLFSTATSLSPFYLRPPSFLRAPSWIDTGLSEMRLEKDRFSVNLDVKHFSPEELKVKVLGDVIEVHGKHEERQDEHGFISREFHRKYRIPADVDPLTITSSLSSDGVLTVNGPRKQVSGPERTIPITREEKPAVAAAPKK"}, "B2": {"name": "Itgb3 (protein, UniProt O54890 26-787, looked up)", "Integrin beta-3": "ESNICTTRGVNSCQQCLAVSPVCAWCSDETLSQGSPRCNLKENLLKDNCAPESIEFPVSEAQILEARPLSSKGSGSSAQITQVSPQRIALRLRPDDSKIFSLQVRQVEDYPVDIYYLMDLSFSMKDDLSSIQTLGTKLASQMRKLTSNLRIGFGAFVDKPVSPYMYISPPQAIKNPCYNMKNACLPMFGYKHVLTLTDQVSRFNEEVKKQSVSRNRDAPEGGFDAIMQATVCDEKIGWRNDASHLLVFTTDAKTHIALDGRLAGIVLPNDGHCHIGTDNHYSASTTMDYPSLGLMTEKLSQKNINLIFAVTENVVSLYQNYSELIPGTTVGVLSDDSSNVLQLIVDAYGKIRSKVELEVRDLPEELSLSFNATCLNNEVIPGLKSCVGLKIGDTVSFSIEAKVRGCPQEKEQSFTIKPVGFKDSLTVQVTFDCDCACQAFAQPSSPRCNNGNGTFECGVCRCDQGWLGSMCECSEEDYRPSQQEECSPKEGQPICSQRGECLCGQCVCHSSDFGKITGKYCECDDFSCVRYKGEMCSGHGQCNCGDCVCDSDWTGYYCNCTTRTDTCMSTNGLLCSGRGNCECGSCVCVQPGSYGDTCEKCPTCPDACSFKKECVECKKFNRGTLHEENTCSRYCRDDIEQVKELTDTGKNAVNCTYKNEDDCVVRFQYYEDTSGRAVLYVVEEPECPKGPDILVVLLSVMGAILLIGLATLLIWKLLITIHDRKEFAKFEEERARAKWDTANNPLYKEATSTFTNITYRGT"}, "B3": {"name": "Uba3 (protein, UniProt Q8C878 2-462, looked up)", "NEDD8-activating enzyme E1 …": "ADGEEPEKKRRRIEELLAEKMAVDGGCGDTGDWEGRWNHVKKFLERSGPFTHPDFEPSTESLQFLLDTCKVLVIGAGGLGCELLKNLALSGFRQIHVIDMDTIDVSNLNRQFLFRPKDVGRPKAEVAAEFLNDRVPNCNVVPHFNKIQDFNDTFYRQFHIIVCGLDSIIARRWINGMLISLLNYEDGVLDPSSIVPLIDGGTEGFKGNARVILPGMTACIECTLELYPPQVNFPMCTIASMPRLPEHCIEYVRMLQWPKEQPFGDGVPLDGDDPEHIQWIFQKSIERASQYNIRGVTYRLTQGVVKRIIPAVASTNAVIAAVCATEVFKIATSAYIPLNNYLVFNDVDGLYTYTFEAERKENCPACSQLPQNIQFSPSAKLQEVLDYLTNSASLQMKSPAITATLEGKNRTLYLQSVTSIEERTRPNLSKTLKELGLVDGQELAVADVTTPQTVLFKLHFT"}, "B4": {"name": "Ipo7 (protein, UniProt Q9EPL8 1-1038, looked up)", "Importin-7": "MDPNTIIEALRGTMDPALREAAERQLNEAHKSLNFVSTLLQITMSEQLDLPVRQAGVIYLKNMITQYWPDREATPGDIAPYTIPEEDRHCIRENIVEAIIHSPELIRVQLTTCIHHIIKHDYPSRWTAIVDKIGFYLQSDNSACWLGILLCLYQLVKNYEYKKPEERSPLVAAMQHFLPVLKDRFIQLLSDQSDQSVLIQKQIFKIFYALVQYTLPLELINQQNLTEWVEILKTVVNRDVPNETLQVEEDDRPELPWWKCKKWALHILARLFERYGSPGNVSKEYNEFAEVFLKAFAVGVQQVLLKVLYQYKEKQYMAPRVLQQTLNYINQGVSHALTWKNLKPHIQGIIQDVIFPLMCYTDADEELWQEDPYEYIRMKFDVFEDFISPTTAAQTLLFTACSKRKEVLQKTMGFCYQILTEPNADPRKKDGALHMIGSLAEILLKKKIYKDQMEYMLQNHVFPLFSSELGYMRARACWVLHYFCEVKFKSDQNLQTALELTRRCLIDDREMPVKVEAAIALQVLISNQEKAKEYITPFIRPVMQALLHIIRETENDDLTNVIQKMICEYSEEVTPIAVEMTQHLAMTFNQVIQTGPDEEGSDDKAVTAMGILNTIDTLLSVVEDHKEITQQLEGICLQVIGTVLQQHVLEFYEEIFSLAHSLTCQQVSPQMWQLLPLVFEVFQQDGFDYFTDMMPLLHNYVTVDTDTLLSDTKYLEMIYSMCKKVLTGVAGEDAECHAAKLLEVIILQCKGRGIDQCIPLFVEAALERLTREVKTSELRTMCLQVAIAALYYNPHLLLNTLENLRFPNNVEPVTNHFITQWLNDVDCFLGLHDRKMCVLGLCALIDMEQIPQVLNQVSGQILPAFILLFNGLKRAYACHAEHENDSDDDEDAEDDDETEELGSDEDDIDEDGQEYLEILAKQAGEDGDDEDWEEDDAEETALEGYSTIIDDEDNPVDEYQIFKAIFQTIQNRNPVWYQALTHGLNEEQRKQLQDIATLADQRRAAHESKMIEKHGGYKFSAPVVPSSFNFGGPAPGMN"}, "B5": {"name": "Esyt1 (protein, UniProt Q3U7R1 1-1092, looked up)", "Extended synaptotagmin-1": "MEHSPEEGASPEPSGQPPATDSTRDGGSGVPPAGPGAASEALAVLTSFGRRLLVLVPVYLAGAAGLSVGFVLFGLALYLGWRRVRDGKERSLRAARQLLDDEERITAETLYMSHRELPAWVSFPDVEKAEWLNKIVAQVWPFLGQYMEKLLAETVAPAVRGANPHLQTFTFTRVELGEKPLRIIGVKVHPSQRKDQILLDLNVSYVGDVQIDVEVKKYFCKAGVKGMQLHGVLRVILEPLTGDLPIVGAVSMFFIKRPTLDINWTGMTNLLDIPGLSSLSDTMIMDSIAAFLVLPNRLLVPLVPDLQDVAQLRSPLPRGIIRIHLLAARGLSSKDKYVKGLIEGKSDPYALVRVGTQTFCSRVIDEELNPHWGETYEVIVHEVPGQEIEVEVFDKDPDKDDFLGRMKLDVGKVLQAGVLDNWYPLQGGQGQVHLRLEWLSLLPDAEKLDQVLQWNRGITSRPEPPSAAILVVYLDRAQDLPLKKGNKEPNPMVQLSVQDVTRESKATYSTNSPVWEEAFRFFLQDPRSQELDVQVKDDSRALTLGALTLPLARLLTASELTLDQWFQLSSSGPNSRLYMKLVMRILYLDYSEIRFPTVPGAQDWDRESLETGSSVDAPPRPYHTTPNSHFGTENVLRIHVLEAQDLIAKDRFLGGLVKGKSDPYVKLKVAGKSFRTHVVREDLNPRWNEVFEVIVTSIPGQELEIEVFDKDLDKDDFLGRYKVSLTTVLNSGFLDEWLTLEDVPSGRLHLRLERLTPRPTAAELEEVLQVNSLIQTQKSSELAAALLSVFLERAEDLPLRKGTKPPSPYATITVGETSHKTKTVSQSSAPVWEESASFLIRKPHAESLELQVRGEGTGTLGSVSLPLSELLQEDQLCLDHWFALSGQGQVLMRAQLGILVSQHSGVEAHSHSYSHSHSSSSLNDEPEALGGPTHPASPVLEVRHRLTHGDSPSEAPVGPLGQVKLTVWYHSDEQKLISIIHSCRALRQNGRDLPDPYVSVLLLPDKNRSTKRKTPQKKRTLNPEFNERFEWDLPLDGTLRRKLDVSVKSNSSFMSRERELLGKVQLDLAEIDLSQGAAQWYDLMDDRDKGGS"}},
  "key": {"DYT-TOR1A MEF EVs": {"tested_on": "DYT-TOR1A MEF EVs", "experiment": "Quantitative LC-MS/MS proteomics of EVs from drug-treated DYT-TOR1A MEF cultures (ritonavir, salubrinal)", "assay_type": "cell-based, mouse", "set-up": "key to RTV Corrective Direction / RTV Corrective Direction, Grwd1 / RTV Corrective Direction, Srrm2 / RTV Corrective Direction, Rbm17 / RTV Corrective Direction, Dcaf8 / RTV Corrective Direction, Edil3 / RTV Corrective Direction, Timp3 / RTV Corrective Direction, Heatr3 / RTV Corrective Direction, Brd4 / RTV Corrective Direction, P3h4 / RTV Corrective Direction, Pacsin3 / RTV Corrective Direction, Naa50 / RTV Corrective Direction, Lpar6 / RTV Corrective Direction, Ndrg1 / RTV Corrective Direction, Kntc1 / RTV Corrective Direction, Cdk11b / RTV Corrective Direction, Sumo1 / RTV Corrective Direction, Lsm4 / RTV Corrective Direction, Hmga2 / RTV Corrective Direction, Cstf1 / RTV Corrective Direction, Tes / RTV Corrective Direction, Sbno1 / RTV Corrective Direction, Unc119b / RTV Corrective Direction, Cfdp1 / RTV Corrective Direction, Sec61b: YES = protein abundance effect opposite to DYT/WT", "conditions": "EV protein abundance; for RTV Corrective Direction: DYT + RTV (ritonavir) vs DYT, direction compared with DYT/WT; for DYT + RTV/DYT Cohen's d: ritonavir (RTV)-treated DYT vs DYT"}, "WT MEF EVs": {"tested_on": "WT MEF EVs", "experiment": "Quantitative LC-MS/MS proteomics of EVs from ISRIB-treated WT MEF cultures", "assay_type": "cell-based, mouse", "set-up": "key to ISRIB and DYT Parallel Direction / ISRIB and DYT Parallel Direction, Ctdsp1 / ISRIB and DYT Parallel Direction, Pcdh19 / ISRIB and DYT Parallel Direction, Tspan7 / ISRIB and DYT Parallel Direction, Myo1e / ISRIB and DYT Parallel Direction, Plpp3 / ISRIB and DYT Parallel Direction, Sh3bp4 / ISRIB and DYT Parallel Direction, Dnajc7 / ISRIB and DYT Parallel Direction, Drg1 / ISRIB and DYT Parallel Direction, Maea: YES = protein abundance effect similar to DYT/WT", "conditions": "EV protein abundance; for WT + ISRIB/WT Cohen's d: ISRIB-treated WT vs WT"}},
  "data": [
    {"molecule": "B1", "values": [
      {"measurement": "RTV Corrective Direction", "setting": "DYT-TOR1A MEF EVs", "result": "YES"},
      {"measurement": "DYT + RTV/DYT Cohen's d", "setting": "DYT-TOR1A MEF EVs", "result": 1.11},
      {"measurement": "WT + ISRIB/WT Cohen's d", "setting": "WT MEF EVs", "result": 0.39}
    ]},
    {"molecule": "B2", "values": [
      {"measurement": "RTV Corrective Direction", "setting": "DYT-TOR1A MEF EVs", "result": "YES"},
      {"measurement": "DYT + RTV/DYT Cohen's d", "setting": "DYT-TOR1A MEF EVs", "result": 1.96},
      {"measurement": "WT + ISRIB/WT Cohen's d", "setting": "WT MEF EVs", "result": 0.14}
    ]},
    {"molecule": "B3", "values": [
      {"measurement": "RTV Corrective Direction", "setting": "DYT-TOR1A MEF EVs", "result": "YES"},
      {"measurement": "DYT + RTV/DYT Cohen's d", "setting": "DYT-TOR1A MEF EVs", "result": 10.01},
      {"measurement": "WT + ISRIB/WT Cohen's d", "setting": "WT MEF EVs", "result": "−1.68"},
      {"measurement": "ISRIB and DYT Parallel Direction", "setting": "WT MEF EVs; WT + ISRIB vs WT, direction compared with DYT/WT", "result": "YES"}
    ]},
    {"molecule": "B4", "values": [
      {"measurement": "RTV Corrective Direction", "setting": "DYT-TOR1A MEF EVs", "result": "YES"},
      {"measurement": "DYT + RTV/DYT Cohen's d", "setting": "DYT-TOR1A MEF EVs", "result": 2.25},
      {"measurement": "WT + ISRIB/WT Cohen's d", "setting": "WT MEF EVs", "result": 0.30}
    ]},
    {"molecule": "B5", "values": [
      {"measurement": "RTV Corrective Direction", "setting": "DYT-TOR1A MEF EVs", "result": "YES"},
      {"measurement": "DYT + RTV/DYT Cohen's d", "setting": "DYT-TOR1A MEF EVs", "result": 1.25},
      {"measurement": "WT + ISRIB/WT Cohen's d", "setting": "WT MEF EVs", "result": 0.18}
    ]}
  ]
}
